One block for each binder: values may come before it.
Columns and labels:
[1] = biological target: T1, recombinant his-S-tagged pro-domain of human BDNF (residues Ala1-Arg110), from pET-30 Xa/LIC, E. coli (human) (UniProt P23560); test: SPR competition, 390 nM Sortilin with 300 uM peptide over immobilised pro-dom-BDNF
T1 sequence: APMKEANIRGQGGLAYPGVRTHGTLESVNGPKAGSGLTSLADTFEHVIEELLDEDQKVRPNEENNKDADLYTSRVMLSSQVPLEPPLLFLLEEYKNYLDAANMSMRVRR

[2] = biological target: purified human Sortilin extracellular domain (produced in stably transfected CHO cells) (human) (UniProt Q99523); test: SPR (Biacore), immobilised Sortilin extracellular domain (94 fmol/mm2); GST-pro-domain of proBDNF, upper panel of FIG. 7
purified human Sortilin extracellular domain (produced in stably transfected CHO cells) (human), sequence (Q99523 78-755 V650M limits assumed): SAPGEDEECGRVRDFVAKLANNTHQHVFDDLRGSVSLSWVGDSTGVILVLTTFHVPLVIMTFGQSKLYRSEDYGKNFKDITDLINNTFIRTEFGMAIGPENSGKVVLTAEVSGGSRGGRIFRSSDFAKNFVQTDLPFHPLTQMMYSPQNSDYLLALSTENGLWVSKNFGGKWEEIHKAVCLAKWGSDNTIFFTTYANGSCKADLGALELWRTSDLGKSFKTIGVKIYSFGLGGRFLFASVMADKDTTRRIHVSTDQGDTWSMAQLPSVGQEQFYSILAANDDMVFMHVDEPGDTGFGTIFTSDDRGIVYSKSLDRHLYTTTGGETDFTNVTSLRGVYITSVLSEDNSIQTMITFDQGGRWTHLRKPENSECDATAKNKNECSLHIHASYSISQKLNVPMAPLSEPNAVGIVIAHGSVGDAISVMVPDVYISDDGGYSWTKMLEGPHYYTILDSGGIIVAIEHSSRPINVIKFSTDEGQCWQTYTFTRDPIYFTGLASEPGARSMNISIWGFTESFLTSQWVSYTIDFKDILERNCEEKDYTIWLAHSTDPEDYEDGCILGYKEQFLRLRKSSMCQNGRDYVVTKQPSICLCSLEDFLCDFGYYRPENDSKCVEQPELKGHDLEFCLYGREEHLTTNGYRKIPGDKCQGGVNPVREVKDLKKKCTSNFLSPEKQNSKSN

percent inhibition of Sortilin binding to pro-dom-BDNF [1]: 66%
Binder: RSSDFAKNFVQTDLPF [sortilin peptide … (synthetic, soluble)]

Kd [2]: 58 nM
B1: pro-domain of human BDNF fused to GST (glutathione S-transferase), produced in E. coli (protein, not shown: a dimerising Fc or GST)
chain: T1 sequence
